Target: the molecule itself
Assay: crystal structure; SeMet-DnaJ_(Δ108–114/4M), SeMet-SAD phasing, 2.9 Å; two dimers in the asymmetric unit; crystals from 14–16% PEG 6000, 0.1 M succinate/BTP pH 7.0 with adenine nucleotides

B1: SeMet-DnaJ_(Δ108–114/4M), Thermus thermophilus DnaJ lacking residues 108–114 with four residues substituted by methionine (natural protein, UniProt Q56237 1-280, looked up)
chain: MAAKKDYYAILGVPRNATQEEIKRAYKRLARQYHPDVNKSPEAEEKFKEINEAYAVMSDPEKRRIYDTYGTTEAPPPPPPGGYDFSGFDVEDFSEFFQELFGPGLFGKGRDLRAELPLTLEEAFHGGERVVEVAGRRVSVRMPPGVREGSVIRVPGMGGQGNPPGDLLLVVRMLPHPVFRLEGQDLYATLDVPAPIAVVGGKVRAMTLEGPVEVAVPPRTQAGRKMRLKGKGFPGPAGRGDLYLEVRITIPERLTPEEEALWKKLAEAYYARA
modifications: selenomethionine in place of methionine
notes: DnaJ (type II DnaJ, Hsp40 homologue) of Thermus thermophilus with J, GF and C-terminal domains; chains A-D of the model hold residues 2-272; Cloned NcoI/NotI into pET24d; also called DnaJ_(108114/4M); source: E. coli BL21(DE3) in minimal medium with L-selenomethionine, purified (heat denaturation, Ni-NTA, Superdex 200)
Question: Does B1 bind?
Answer: binds

Source: paper PMC3727329, “Combining crystallography and EPR: crystal and solution structures of the multidomain cochaperone DnaJ” (Acta Crystallographica Section D: Biological Crystallography, 2013)
